In this assay the target is 重组HSP90蛋白 (recombinant HSP90 protein expressed in E. coli BL21 from pET-30a-HSP90) (human) (UniProt P08238). Briefly: indirect ELISA, HSP90 recombinant protein coated at 1 μg/mL, antibody diluted 1:10^3 to 1:10^6, HRP goat anti-mouse. (In an ELISA, binding on a coated surface is turned into a signal by an enzyme label.)

B1: 抗HSP90单克隆抗体 46-2-C9 (anti-HSP90 monoclonal antibody from hybridoma 46-2-C9, purified from mouse ascites) (antibody, V domains shown)
VH: EVQLQQSGPELVKPGASVKISCKASGYSFTGYYMHWVKQSHVKSLEWIGRINPYNGATSYNQNFKDKASLTVDKSSSTAYMELHSLTSEDSAVYYCARSKKYGNYTWFAYWGQGTLVTVSA
VL: DVQMTQSQKFMSTSVGDRVSVTCKASQNVGTNVAWYQQKPGQSPKALIYSASYRYSGVPDRFTGSGSGTDFTLTISNVQSEDLAEYFCQQYNSYIFTFGSGTKLEIKR
Take B1: the 效价 (ELISA titer, dilution factor) (dilution factor) was determined as 100000.

Values taken from patent CN110684105A.
